No end group written: not given here.
Columns and labels:
[1] = target: T1, 15-mer peptide LGIWGCSGKLICTTT (SEQ ID NO:1) (HIV, not fully specified; cysteine pairing not given here); experiment: indirect ELISA; 15-mer peptide coated 1 ug/ml in DTT; antibody at 333 ng/ml
T1 construct: also called U1731DB060-1; U173DB060-1
T1 peptide: LGIWGCSGKLICTTT
Procedure: (§1) In a first study, an ELISA was prepared in which the linear (reduced) form of the 15-mer peptide […] (SEQ ID NO:1) was coated onto a solid support and contacted with various concentrations of peptides #1, #2, #3, #4, #5, #6, #7, #8, #9Q, #10Q, and #11Q. A mouse, anti-human IgG Fc-HRP at 0.2 μg/ml was used as a secondary antibody.

[2] = target: T1, 15-mer peptide LGIWGCSGKLICTTT (SEQ ID …); experiment: indirect ELISA; 15-mer peptide coated 1 ug/ml in DTT; antibody at 111 ng/ml
Procedure: as §1

[3] = target: T1, 15-mer peptide LGIWGCSGKLICTTT (SEQ ID …); experiment: indirect ELISA; 15-mer peptide coated 1 ug/ml in DTT; negative control well of this row (not explained)
Procedure: as §1

[4] = target: T1, 15-mer peptide LGIWGCSGKLICTTT (SEQ ID …); experiment: indirect ELISA; 15-mer peptide coated 1 ug/ml in DTT; antibody at 1000 ng/ml
Procedure: as §1

[5] = target: T1, 15-mer peptide LGIWGCSGKLICTTT (SEQ ID …); experiment: indirect ELISA; 15-mer peptide coated 1 ug/ml in DTT; antibody at 12 ng/ml
Procedure: as §1

[6] = target: T1, 15-mer peptide LGIWGCSGKLICTTT (SEQ ID …); experiment: indirect ELISA; 15-mer peptide coated 1 ug/ml in DTT; antibody at 37 ng/ml
Procedure: as §1

[7] = target: T2, gp41 on the membrane of HIV-infected CD4+ cells (HIV); experiment: FACS on HIV-infected CD4+ cells, absence of sCD4
T2 construct: whole, on cells; also called CD4 cell-surface gp41
Procedure: (§2) For the FACS binding studies, the CD4+ cells that were infected with HIV expressed HIV viral envelope proteins on the cell membrane surfaces, e.g., gp160=gp41 and gp 120. Binding of proteins #7, #10Q, and #10V was tested in both presence and absence of soluble CD4 (sCD4).

[8] = target: gp41 of HIV isolate SF-162 (clade B clinical isolate) (HIV isolate SF-162, clade B); experiment: cell-based or functional assay
[9] = target: T2, gp41 on the membrane of HIV-infected …; experiment: FACS on HIV-infected CD4+ cells, presence of sCD4
Procedure: as §2

recombinant HIV gp41 [10] = target: T3, recombinant HIV gp41 (HIV); experiment: GenScript binding assay, EC50 vs rgp41 (summary table; per first reading the same value as in Tables 6-8)
T3 construct: also called U7267DC080-1; U1916DG190-1

recombinant HIV gp41 [11] = target: T3, recombinant HIV gp41; experiment: indirect ELISA; gp41 coated 2 µg/ml in PBS
Procedure: (§3) Variants #9V, #10V, and #11V were prepared with substitutions in the heavy chain. These variants comprised amino acids sequences nearly identical to #9Q, #10Q, and #11Q, respectively, with the only distinction being a substitution of glutamine (Q) for valine (V) at the 5 position of the heavy chain. Exemplary peptides #10Q and #10V were tested in indirect ELISA assays to determine the EC50 values for binding to the epitope having the amino acid sequence of SEQ ID NO:1 and HIV gp41. The results of these studies are shown in Tables 6 and 7 below, as well as FIGS. 2 and 3. Target proteins U7267DC080-1 and U173DB060-1 correspond to recombinant gp41 and the 15-mer peptide […] (SEQ ID NO:1), respectively.

recombinant HIV gp41 [12] = target: T3, recombinant HIV gp41; experiment: indirect ELISA; gp41 coated 2 µg/ml in DTT (by the table's columns; paragraph 121 calls it the value against SEQ ID NO:1)
Procedure: as §3

| Binder | ELISA OD [1] | ELISA OD [2] | ELISA OD (Neg. Cont.) [3] | ELISA OD [4] | ELISA OD [5] | ELISA OD [6] | Fluorescent (FACS) counts [7] | IC value vs SF 162 (µg/ml) in PBMC based in vitro assays [8] | Fluorescent (FACS) counts [9] | EC50 (recombinant HIV gp41 [10]) | EC50 (recombinant HIV gp41 [11]) | EC50 (recombinant HIV gp41 [12]) |
| --- | --- | --- | --- | --- | --- | --- | --- | --- | --- | --- | --- | --- |
| HIV-binding peptide #1 (antibody, human IgG1, kappa, V domains shown, Recombinant, fully human immunoglobulin; also called U1205DB020-1) VH: QVQLQESGGGVVQPGRSLRLSCAASGFTFSSYAIHWVRQAPGKGLEWVAVISYDGSNRYYADSVKGRFTISRDNSKNTLYLQMNSLRPEDTAVYYCARDRFSAVASTPTYHNYFYMDVWGKGTTVTVSS VL: DIQMTQSPSSLSASVGDRVTITCQASQDVNNYLAWYQQKPGQAPRLLIYDASNLETGVPSRFSGSGSGTDFTLTISSLQPEDLATYYCQQYDNTPYTFGQGTKLEIKR | 0.096 OD | 0.076 OD | 0.096 OD | 0.079 OD | 0.08 OD | 0.098 OD |  |  |  |  |  |  |
| HIV-binding peptide #2 (antibody, human IgG1, kappa, V domains shown, Recombinant, fully human immunoglobulin; also called U1205DB020-2) VH: QVQLQESGGGVVQPGRSLRLSCAASGFTFSSYAIHWVRQAPGKGLEWVAVISYDGSNRYYADSVKGRFTISRDNSKNTLYLQMNSLRPEDTAVYYCARDRFSAVASTPTYHNYFYMDVWGKGTTVTVSS VL: DIQMTQSPSSLSASVGDRVTITCQASQDINNYLAWYQQKPGQAPRLLIYDASNLETGVPSRFSGSGSGTDFTLTISSLQPEDLATYYCQQYDNTPYTFGQGTKLEIKR | 0.076 OD | 0.188 OD | 0.075 OD | 0.068 OD | 0.065 OD | 0.074 OD |  |  |  |  |  |  |
| HIV-binding peptide #3 (antibody, human IgG1, kappa, V domains shown, Recombinant, fully human immunoglobulin; also called U1205DB020-3) VH: QVQLQESGGGVVQPGRSLRLSCAASGFTFSSYAIHWVRQAPGKGLEWVAVISYDGSNRYYADSVKGRFTISRDNSKNTLYLQMNSLRPEDTAVYYCARDRFSAVASTPTYHNYFYMDVWGKGTTVTVSS VL: DIQMTQSPSSLSASVGDRVTITCQASQDVNNYLAWYQQKPGQAPRLLIYDASNLETGVPSRFSGSGSGTDFTLTISSLQPEDLATYYCQQYDNLPYTFGQGTKLEIKR | 0.077 OD | 0.072 OD | 0.083 OD | 0.072 OD | 0.087 OD | 0.074 OD |  |  |  |  |  |  |
| HIV-binding peptide #4 (antibody, human IgG1, kappa, V domains shown, Recombinant, fully human immunoglobulin; also called U1205DB020-4) VH: QVQLQESGGGVVQPGRSLRLSCAASGFTFSSYAIHWVRQAPGKGLEWVAVISYDGSNRYYADSVKGRFTISRDNSKNTLYLQMNSLRPEDTAVYYCARDRFSAVASTPTYHNYFYMDVWGKGTTVTVSS VL: DIQMTQSPSSLSASVGDRVTITCQASQDINNYLAWYQQKPGQAPRLLIYDASNLETGVPSRFSGSGSGTDFTLTISSLQPEDLATYYCQQYDNLPYTFGQGTKLEIKR | 0.079 OD | 0.073 OD | 0.091 OD | 0.07 OD | 0.073 OD | 0.077 OD |  |  |  |  |  |  |
| HIV-binding peptide #5 (antibody, human IgG1, kappa, V domains shown, Recombinant, fully human immunoglobulin; also called U1205DB020-5) VH: QVQLQESGGGVVQPGRSLRLSCAASGFTFSSYAIHWVRQAPGKGLEWVAVISYDGSNRYYADSVKGRFTISRDNSKNTLYLQMNSLRPEDTAVYYCARDRFSAVASTPTYHNYFYMDVWGKGTTVTVSS VL: DIQMTQSPSSLSASVGDRVTITCQASQDVSNYLAWYQQKPGQAPRLLIYDASNLETGVPSRFSGSGSGTDFTLTISSLQPEDLATYYCQQYDNTPYTFGQGTKLEIKR | 0.086 OD | 0.071 OD | 0.078 OD | 0.081 OD | 0.082 OD | 0.081 OD |  |  |  |  |  |  |
| HIV-binding peptide #6 (antibody, human IgG1, kappa, V domains shown, Recombinant, fully human immunoglobulin; also called U1205DB020-6) VH: QVQLQESGGGVVQPGRSLRLSCAASGFTFSSYAIHWVRQAPGKGLEWVAVISYDGSNRYYADSVKGRFTISRDNSKNTLYLQMNSLRPEDTAVYYCARDRFSAVASTPTYHNYFYMDVWGKGTTVTVSS VL: DIQMTQSPSSLSASVGDRVTITCQASQDISNYLAWYQQKPGQAPRLLIYDASNLETGVPSRFSGSGSGTDFTLTISSLQPEDLATYYCQQYDNTPYTFGQGTKLEIKR | 0.078 OD | 0.08 OD | 0.087 OD | 0.079 OD | 0.077 OD | 0.072 OD |  |  |  |  |  |  |
| HIV-binding peptide #7 (antibody, human IgG1, kappa, V domains shown, also called U1205DB020-7) VH: QVQLQESGGGVVQPGRSLRLSCAASGFTFSSYAIHWVRQAPGKGLEWVAVISYDGSNRYYADSVKGRFTISRDNSKNTLYLQMNSLRPEDTAVYYCARDRFSAVASTPTYHNYFYMDVWGKGTTVTVSS VL: DIQMTQSPSSLSASVGDRVTITCQASQDVSNYLAWYQQKPGQAPRLLIYDASNLETGVPSRFSGSGSGTDFTLTISSLQPEDLATYYCQQYDNLPYTFGQGTKLEIKR | 0.092 OD | 0.084 OD | 0.088 OD | 0.09 OD | 0.096 OD | 0.098 OD | 25900 counts | 0.5 µg/mL | 25000 counts | 107 mg/L |  |  |
| HIV-binding peptide #8 (antibody, human IgG1, kappa, V domains shown, Recombinant, fully human immunoglobulin; also called U1205DB020-8) VH: QVQLQESGGGVVQPGRSLRLSCAASGFTFSSYAIHWVRQAPGKGLEWVAVISYDGSNRYYADSVKGRFTISRDNSKNTLYLQMNSLRPEDTAVYYCARDRFSAVASTPTYHNYFYMDVWGKGTTVTVSS VL: DIQMTQSPSSLSASVGDRVTITCQASQDISNYLAWYQQKPGQAPRLLIYDASNLETGVPSRFSGSGSGTDFTLTISSLQPEDLATYYCQQYDNLPYTFGQGTKLEIKR | 0.073 OD | 0.1 OD | 0.088 OD | 0.076 OD | 0.094 OD | 0.089 OD |  |  |  |  |  |  |
| HIV-binding peptide #10Q (antibody, V domains shown, also called antibody#10-5Q; U1205DB020-10) VH: QVQLQESGGGVVQPGRSLRLSCAASGFTFSSYAIHWVRQAPGKGLEWVAVISYDGSNRYYADSVKGRFTISRDNSKNTLYLQMNSLRPEDTAVYYCARDRFSAVASTPTYHNYFYMDVWGKGTTVTVSS | 0.863 OD | 0.377 OD | 0.084 OD | 1.71 OD | 0.14 OD | 0.209 OD | 120000 counts | 0.05 µg/mL | 110000 counts | 1.78 mg/L | 1.78 mg/L | 5.54 mg/L |
| HIV-binding peptide #10V (antibody, V domains shown, differs from #10Q by Q to V at position 5 of the heavy chain; also called antibody#10-5V; U6323DD200-2) VH: QVQLVESGGGVVQPGRSLRLSCAASGFTFSSYAIHWVRQAPGKGLEWVAVISYDGSNRYYADSVKGRFTISRDNSKNTLYLQMNSLRPEDTAVYYCARDRFSAVASTPTYHNYFYMDVWGKGTTVTVSS |  |  |  |  |  |  | 56600 counts | 0.5 µg/mL | 29900 counts | 1.39 mg/L | 1.39 mg/L | 4.59 mg/L |
| HIV-binding peptide #9Q (antibody, human IgG1, V domains shown) VH: QVQLQESGGGVVQPGRSLRLSCAASGFTFSSYAIHWVRQAPGKGLEWVAVISYDGSNRYYADSVKGRFTISRDNSKNTLYLQMNSLRPEDTAVYYCARDRFSAVASTPTYHNYFYMDVWGKGTTVTVSS | 0.322 OD | 0.171 OD | 0.105 OD | 0.745 OD | 0.111 OD | 0.122 OD |  |  |  |  |  |  |
| HIV-binding peptide #11Q (antibody, V domains shown, Heavy chain only with variant CH1/CH2 (hinge cysteines replaced by serines)) VH: QVQLQESGGGVVQPGRSLRLSCAASGFTFSSYAIHWVRQAPGKGLEWVAVISYDGSNRYYADSVKGRFTISRDNSKNTLYLQMNSLRPEDTAVYYCARDRFSAVASTPTYHNYFYMDVWGKGTTVTVSS | 0.241 OD | 0.127 OD | 0.104 OD | 0.441 OD | 0.092 OD | 0.119 OD |  |  |  |  |  |  |

Reference: patent publication US20250002565A1 (published 2025)
